Reference: publication PMC2734569, “Functional mapping of the fission yeast DNA polymerase δ B-subunit Cdc1 by site-directed and random pentapeptide insertion mutagenesis” (BMC Molecular Biology, 2009)
Numbering of substitutions follows the chain as printed.

Experiments:
Experiment in all cases: two-hybrid; LexA-Cdc1 bait (pBTM116 or pBTM116BN) with Gal4-Pol3 prey and co-expressed c-myc-tagged Cdc27 (pAA-Cdc27) in S. cerevisiae CTY10-5d; ONPG liquid culture beta-galactosidase assay, mean of triplicates, as percent of wild-type Cdc1
Cdc1-E2 = molecular target: T1, Cdc1-E2 (Schizosaccharomyces pombe, UniProt P87324 1-26); conditions: partners not purified
T1 construct: Cdc1, S. pombe, truncated after amino acid 26 by a 16 nt insertion; residues coded by the 16 nt insertion before the stop codon (printed as GlyValProLysTer); source: yeast two-hybrid fusion, in S. cerevisiae CTY10-5d
T1 chain: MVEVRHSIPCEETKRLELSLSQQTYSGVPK

Cdc1-A6 = molecular target: T2, Cdc1-A6 (Schizosaccharomyces pombe, UniProt P87324 1-462, Pro329Ala); conditions: partners not purified
T2 construct: Cdc1, S. pombe, point mutant; source: yeast two-hybrid fusion, in S. cerevisiae CTY10-5d
T2 sequence (looked up): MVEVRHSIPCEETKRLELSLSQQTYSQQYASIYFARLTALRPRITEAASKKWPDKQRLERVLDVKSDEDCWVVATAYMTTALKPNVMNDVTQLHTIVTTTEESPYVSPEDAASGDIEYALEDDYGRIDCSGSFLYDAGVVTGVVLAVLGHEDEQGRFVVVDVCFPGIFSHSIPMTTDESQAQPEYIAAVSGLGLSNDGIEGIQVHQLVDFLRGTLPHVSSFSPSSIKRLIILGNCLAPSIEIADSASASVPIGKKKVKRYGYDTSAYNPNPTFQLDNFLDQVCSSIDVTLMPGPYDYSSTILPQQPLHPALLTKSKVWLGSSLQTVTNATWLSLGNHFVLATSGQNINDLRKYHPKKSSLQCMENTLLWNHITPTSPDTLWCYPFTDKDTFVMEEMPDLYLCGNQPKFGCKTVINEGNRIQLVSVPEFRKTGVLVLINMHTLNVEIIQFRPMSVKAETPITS

Cdc1-J7 = molecular target: T3, Cdc1-J7 (Schizosaccharomyces pombe, UniProt P87324 1-462, Met-GlyValProLeuMet-Glu); conditions: partners not purified
T3 construct: Cdc1, S. pombe, with a pentapeptide inserted after residue 393; source: yeast two-hybrid fusion, in S. cerevisiae CTY10-5d
T3 sequence (looked up): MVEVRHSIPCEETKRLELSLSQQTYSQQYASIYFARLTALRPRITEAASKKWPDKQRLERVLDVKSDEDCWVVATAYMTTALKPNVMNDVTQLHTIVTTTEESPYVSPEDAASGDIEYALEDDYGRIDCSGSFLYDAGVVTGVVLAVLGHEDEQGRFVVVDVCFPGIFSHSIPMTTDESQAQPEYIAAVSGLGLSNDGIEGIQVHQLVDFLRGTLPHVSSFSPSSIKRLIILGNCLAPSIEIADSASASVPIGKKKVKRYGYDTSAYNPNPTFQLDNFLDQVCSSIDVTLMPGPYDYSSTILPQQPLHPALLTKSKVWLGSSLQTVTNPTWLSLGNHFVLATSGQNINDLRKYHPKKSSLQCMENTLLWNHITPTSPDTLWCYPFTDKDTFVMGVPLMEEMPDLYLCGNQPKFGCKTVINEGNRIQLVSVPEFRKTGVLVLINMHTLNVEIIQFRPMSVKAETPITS

Cdc1-A2 = molecular target: T4, Cdc1-A2 (Schizosaccharomyces pombe, UniProt P87324 1-462, Gly293Ala); conditions: partners not purified
T4 construct: Cdc1, S. pombe, point mutant; source: yeast two-hybrid fusion, in S. cerevisiae CTY10-5d
T4 sequence (looked up): T2 sequence (looked up) with G293A, A329P

[1] = molecular target: Cdc1-J17 (Schizosaccharomyces pombe) (UniProt P87324)

B1: Pol3 (fission yeast DNA polymerase delta catalytic subunit) (natural protein, Schizosaccharomyces pombe, UniProt P30316 1-1086, looked up)
chain: MTDRSSNEGVVLNKENYPFPRRNGSIHGEITDVKRRRLSERNGYGDKKGSSSKEKTSSFEDELAEYASQLDQDEIKSSKDQQWQRPALPAINPEKDDIYFQQIDSEEFTEGSVPSIRLFGVTDNGNSILVHVVGFLPYFYVKAPVGFRPEMLERFTQDLDATCNGGVIDHCIIEMKENLYGFQGNEKSPFIKIFTTNPRILSRARNVFERGEFNFEELFPVGVGVTTFESNTQYLLRFMIDCDVVGMNWIHLPASKYQFRYQNRVSNCQIEAWINYKDLISLPAEGQWSKMAPLRIMSFDIECAGRKGVFPDPSIDPVIQIASIVTQYGDSTPFVRNVFCVDTCSQIVGTQVYEFQNQAEMLSSWSKFVRDVDPDVLIGYNICNFDIPYLLDRAKSLRIHNFPLLGRIHNFFSVAKETTFSSKAYGTRESKTTSIPGRLQLDMLQVMQRDFKLRSYSLNAVCSQFLGEQKEDVHYSIITDLQNGTADSRRRLAIYCLKDAYLPQRLMDKLMCFVNYTEMARVTGVPFNFLLARGQQIKVISQLFRKALQHDLVVPNIRVNGTDEQYEGATVIEPIKGYYDTPIATLDFSSLYPSIMQAHNLCYTTLLDSNTAELLKLKQDVDYSVTPNGDYFVKPHVRKGLLPIILADLLNARKKAKADLKKETDPFKKAVLDGRQLALKVSANSVYGFTGATNGRLPCLAISSSVTSYGRQMIEKTKDVVEKRYRIENGYSHDAVVIYGDTDSVMVKFGVKTLPEAMKLGEEAANYVSDQFPNPIKLEFEKVYFPYLLISKKRYAGLFWTRTDTYDKMDSKGIETVRRDNCPLVSYVIDTALRKMLIDQDVEGAQLFTKKVISDLLQNKIDMSQLVITKALSKTDYAAKMAHVELAERMRKRDAGSAPAIGDRVAYVIIKGAQGDQFYMRSEDPIYVLENNIPIDAKYYLENQLSKPLLRIFEPILGEKASSLLHGDHTRTISMAAPSVGGIMKFAVKVETCLGCKAPIKKGKTALCENCLNRSAELYQRQVAQVNDLEVRFARLWTQCQRCQGSMHQDVICTSRDCPIFYMRIAEHKKLQQSVDLLKRFDEMSW
notes: DNA polymerase delta catalytic subunit Pol3, S. pombe; prey plasmid named pACT-Pol3 in the results and pGAD2F-Pol3 in the methods; also called Gal4-Pol3; pACT-Pol3; source: yeast two-hybrid fusion, in S. cerevisiae CTY10-5d
two-hybrid beta-galactosidase activity, % of wild-type Cdc1 (Cdc1-E2): < 1% | two-hybrid beta-galactosidase activity, % of wild-type Cdc1 (Cdc1-A6): < 1% | two-hybrid beta-galactosidase activity, % of wild-type Cdc1 (Cdc1-J7): < 1% | two-hybrid beta-galactosidase activity, % of wild-type Cdc1 (Cdc1-A2): < 1% | two-hybrid beta-galactosidase activity, % of wild-type Cdc1 [1]: 2%
